These results are taken from paper PMC8519434, “The structure of nontypeable Haemophilus influenzae SapA in a closed conformation reveals a constricted ligand-binding cavity and a novel RNA binding motif” (PLoS ONE, 2021).

As usually defined, the Kd is a measure of binding affinity in units of concentration.

Data set [1] deals with T1, SapA (Haemophilus influenzae, UniProt Q4QL73).
T1 construct: residues 33 to 560, without the predicted signal peptide
Put plainly: ITC (stoichiometry fixed to […]), crystal structure by hemin soaking ([…] Å), native PAGE shift. The data set is classed as binding.

The target of data set [2] is T2, SapA (nontypeable Haemophilus influenzae 86-028NP) (UniProt Q4QL73).
T2 sequence: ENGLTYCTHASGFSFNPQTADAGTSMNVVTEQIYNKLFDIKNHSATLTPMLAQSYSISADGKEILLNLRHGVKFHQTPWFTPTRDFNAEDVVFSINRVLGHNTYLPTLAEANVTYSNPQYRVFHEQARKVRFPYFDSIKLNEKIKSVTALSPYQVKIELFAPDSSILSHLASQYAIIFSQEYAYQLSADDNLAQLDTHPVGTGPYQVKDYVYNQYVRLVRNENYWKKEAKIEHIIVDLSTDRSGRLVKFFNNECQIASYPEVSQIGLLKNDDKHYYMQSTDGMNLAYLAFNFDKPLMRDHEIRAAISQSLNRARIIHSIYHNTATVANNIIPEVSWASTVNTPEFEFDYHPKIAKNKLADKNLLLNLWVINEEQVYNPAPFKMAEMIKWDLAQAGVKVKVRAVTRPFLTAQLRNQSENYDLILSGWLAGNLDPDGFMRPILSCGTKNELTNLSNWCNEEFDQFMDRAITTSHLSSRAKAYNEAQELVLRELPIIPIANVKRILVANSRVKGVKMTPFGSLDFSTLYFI
The experiment in a line: EMSA (agarose, decrease of rRNA bands). On the technique in general: Mobility shift assays separate free from complexed probe on a gel.

The subject of data set [3] is SapA R101S (nontypeable Haemophilus influenzae 86-028NP). The experiment in a line: EMSA (agarose, decrease of rRNA bands).
The test system of data set [4] is SapA Q85S R101S (nontypeable Haemophilus influenzae 86-028NP). Put plainly: EMSA (agarose, decrease of rRNA bands).

With `C=CC1=C(C)C2=Cc3c(C=C)c(C)c4[n]3[Fe][n]3c(c(C)c(CCC(=O)O)c3=CC3=NC(=C4)C(C)=C3CCC(=O)O)=CC1=N2` [heme], the Kd in data set [1] was 282 ± 18.3 µM.
Consider “E. coli DH5alpha rRNA (16S + 23S bands of total RNA)”, for which the results for the Kd in data set [2], in data set [3] and in data set [4] were 4.4 µM, 7.7 µM and 23 µM, respectively.
